# Key:
# [1] = biological target: T1, mature evolved transglutaminase (SEQ ID NO: 5) (Streptomyces mobaraensis, UniProt P81453, G359A/K167H/K227R/K228R/N358M/Q126S/Q150A/Q200L); assay: transglutaminase thermostability: activity after being held at 37-50 °C; type: biochemical; design: key: The symbol, —, represents not determined, neutral, or reduced performance; conditions: relative to wild-type pro-peptide; held at 37° C.-50° C. for 30 minutes, diluted 10-fold to 100-fold
# T1 construct: hexa-His tag with two amino acid linker (C); made in house; host or cells: E. coli BL21 (DE3)
# T1 sequence (P81453 other isoform, or with tags, fused parts or gaps Q126S/Q150A/K167H/Q200L/K227R/K228R/N358M/G359A): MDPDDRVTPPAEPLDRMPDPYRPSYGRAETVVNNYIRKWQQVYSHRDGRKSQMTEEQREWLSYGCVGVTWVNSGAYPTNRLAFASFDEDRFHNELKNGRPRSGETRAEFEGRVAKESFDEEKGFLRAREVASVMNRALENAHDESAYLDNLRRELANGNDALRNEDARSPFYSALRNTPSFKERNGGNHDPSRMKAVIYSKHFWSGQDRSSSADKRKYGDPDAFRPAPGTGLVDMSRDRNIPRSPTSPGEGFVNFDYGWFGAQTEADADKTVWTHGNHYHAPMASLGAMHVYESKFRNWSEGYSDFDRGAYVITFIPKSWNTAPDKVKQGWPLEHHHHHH
# Experimental: The terms “stability” and “thermostability” are used interchangeably to refer to increased residual activity of mature transglutaminase after incubation at elevated temperatures. In some embodiments, a pro-peptide variant increases the stability of a mature transglutaminase compared to the wild type pro-peptide. Measurement of stability is depicted in Example 4.
# It is believed that these pro-peptide variants confer thermal stability to mature transglutaminase.
# [2] = biological target: T1, mature evolved transglutaminase (SEQ ID NO: 5); assay: casein assay, inhibition by pro-peptide variants (Method B, activated zymogen); type: biochemical; design: key: The symbol, —, represents not determined, neutral, or reduced performance; conditions: relative to wild-type pro-peptide, diluted approximately 20-fold into casein assay solution
# Text: Method B. The gene coding for a Pro-transglutaminase (i.e., zymogen form of transglutaminase) variant with the wild-type pro-domain (SEQ ID NO: 2) and an evolved mature domain including a C-terminal His tag (SEQ ID NO: 5), and was cloned into a pET vector operatively linked to the T7 promoter. The expression vector also contains the pMB1 origin of replication and a kanamycin resistance gene. The resulting plasmid was transformed first into E. coli DH-10B, using standard methods known in the art. […]
# (§1) A secondary screen was performed to determine initial rate of transglutaminase in the presence of the pro-peptide variants using transglutaminase-catalyzed labeling of casein with dansylcadaverine (e.g., a commercially available kit such as the Transglutaminase Fluorogenic Activity Assay Kit, T036, Zedira, Germany). Transglutaminase activity was monitored by measuring the fluorescence (excitation wavelength 332 nm; emission wavelength 500 nm) using a BioTek Synergy H1 microplate reader. Transglutaminase-catalyzed covalent coupling (crosslinking) of monodansylcadaverine with N,N-dimethylcasein produces a product that causes a shift in intensity and wavelength of fluorescence of the dansyl group now linked to the casein. The relative transglutaminase activity is shown by increase of fluorescence intensity over time. […]
# [3] = biological target: evolved variant of mature Streptomyces mobaraensis transglutaminase, including a two amino acid linker and hexa-his tag (Streptomyces mobaraensis) (UniProt P81453); assay: cell-based or functional assay
# [4] = tested on: E. coli ATCC 8739; assay: MIC determination of bacterial cultures (OD600); type: cell-based; conditions: E. coli ATCC 8739, Mueller Hinton broth
# Experimental: E. coli ATCC 8739 and C. albicans ATCC 10231 were acquired from the American Type Culture Collection (ATCC) (Manassas, VA) and maintained as −80° C. frozen glycerol stocks.
# For Minimum Inhibitor Concentration (MIC) determination of bacterial cultures, E. coli ATCC 8739 was grown overnight (16-18 hours) in Mueller Hinton broth at 37° C. The following day, the cell density of the saturated cultures was calculated using OD600 and cultures were diluted to 10^4 to 10^6 CFU/mL in sterile Mueller Hinton broth to generate the inoculum, and 100 μL of the inoculum was combined with 100 μL of serially diluted transglutaminase variant at a range of 0.0001-0.05 weight percent. Growth curves were measured by OD600 on a BioTek® Synergy Plate Reader. All test conditions were performed in triplicate. MIC was determined to be 50 ppm (0.005% w/v) against E. coli for the enzyme described in SEQ ID NO: 5 using OD600.
# [5] = biological target: T2, thermostable mature transglutaminase variant (SEQ ID NO: 3) (Streptomyces mobaraensis, UniProt P81453); assay: pH-responsiveness screen: casein/dansylcadaverine assay at pH 6.0 and pH 8.0 in the presence of pro-peptide variants (Method A); type: biochemical; conditions: casein assay
# T2 construct: made in house; host or cells: E. coli (lysate)
# Text: (§2) Method A. A bicistronic expression vector encoding the wild-type pro-domain of transglutaminase (SEQ ID NO: 2) and a thermostable mature transglutaminase variant (SEQ ID NO: 3) as separate polypeptides was cloned as described in PCT/US20/49226 (WO2021/178001 A1). The vector was used as a template for synthesis of a random mutagenesis library targeting the pro-domain coding sequence to create pro-domain peptide variants.
# Method A. Plasmid libraries containing mature transglutaminase and variant pro-domain peptides were plated on Luria-Bertani (LB) agar plates containing 50 μg/mL of kanamycin. […]
# as §1, with “casein.” for “casein. The relative transglutaminase activity is shown by increase of fluorescence intensity over time.”
# [6] = biological target: T2, thermostable mature transglutaminase variant (SEQ ID NO: 3); type: biochemical; conditions: casein assay; Method A
# Text: as §2
# Method A. Plasmid libraries containing mature transglutaminase and variant pro-domain peptides were plated on Luria-Bertani (LB) agar plates containing 50 μg/mL of kanamycin. After incubation for at least 16 hours at 37° C., colonies were picked and inoculated into 1 mL of LB broth with 50 μg/mL kanamycin in one well of a 96 deep well culture plate. The plate was covered with a breathable seal and incubated overnight at 37° C. with 400 rpm of shaking. 10 μL of the seed culture was used to inoculate 1 mL of media in a 96 deep well culture plate for expression. The expression plate was allowed to grow for 6-8 hours at 30° C. Expression was then induced by adding isopropyl beta-D-1-thiogalactopyranoside (IPTG) to a final concentration of 1 mM and the temperature was reduced to 20° C. while growth continued for an additional 15 hours. Cells were harvested by centrifugation at 4000 rcf for 30 minutes and pellets were frozen at −80° C.
# as §1, with “time. The data were normalized for transglutaminase expression levels in E. coli lysate as described above. Pro-domain variants were identified based on their ability to alter the activity of the mature transglutaminase enzyme.” for “time.”
# It is believed that these pro-peptide variants have reduced binding affinity with mature mTgase.
molecule,measurement,setting,value
"D2I, E2S, D21T: combination variant of pro-peptide SEQ ID NO: 2, Method B; E2S probably E7S (MINGAGSETKSYAETYRLTATDVANINALNESAPAASSAGPSFRAP)",Thermostability,[1],—
same,Inhibition,[2],>2 fold
"pro-peptide variant D2I, E2S, D21T (Method B)",Inhibition,[3],> 2 fold
D21T: substitution variant of pro-peptide SEQ ID NO: 2 (MDNGAGEETKSYAETYRLTATDVANINALNESAPAASSAGPSFRAP) [Variant D21T],Inhibition,[2],—
SEQ ID NO: 3: thermostable variant of Streptomyces mobaraensis transglutaminase (protein) MDPDDRVTPPAEPLDRMPDPYRPSYGRAETVVNNYIRKWQQVYSHRDGRKQQMTEEQREWLSYGCVGVTWVNSGQYPTNRLAFASFDEDRFKNELKNGRPRSGETRAEFEGRVAKESFDEEKGFQRAREVASVMNRALENAHDESAYLDNLKKELANGNDALRNEDARSPFYSALRNTPSFKERNGGNHDPSRMKAVIYSKHFWSGQDRSSSADKRKYGDPDAFRPAPGTGLVDMSRDRNIPRSPTSPGEGFVNFDYGWFGAQTEADADKTVWTHGNHYHAPNGSLGAMHVYESKFRNWSEGYSDFDRGAYVITFIPKSWNTAPDKVKQGWP,MIC,[4],outside the range of detection
SEQ ID NO: 4 (protein) MDNGAGEETKSYAETYRLTADDVLNINAETYRLTADDVRNINALNESAPAASSAGPSFRAP,activity at pH 6.0 relative to pH 8.0 compared to the wild-type pro-peptide,[5],increase in activity at pH 6.0 relative to pH 8.0 compared to the wild-type pro-peptide
same,transglutaminase activity relative to the wild-type pro-peptide,[6],decrease in transglutaminase activity relative to the wild-type pro-peptide

# Reference: US20250304927A1, “PRO-PEPTIDE VARIANTS FOR MODULATING ACTIVITY OF TRANSGLUTAMINASES” (CURIE CO. INC., priority 2022, published 2025)
